Blank lines part the entries; values can stand above or below the binder they belong to.
B3: Sth1, the large ATPase subunit of the RSC remodeler complex (natural protein, S. cerevisiae)
chain: MLQEQSELMSTVMNNTPTTVAALAAVAAASETNGKLGSEEQPEITIPKPRSSAQLEQLLYRYRAIQNHPKENKLEIKAIEDTFRNISRDQDIYETKLDTLRKSIDKGFQYDEDLLNKHLVALQLLEKDTDVPDYFLDLPDTKNDNTTAIEVDYSEKKPIKISADFNAKAKSLGLESKFSNATKTALGDPDTEIRISARISNRINELERLPANLGTYSLDDCLEFITKDDLSSRMDTFKIKALVELKSLKLLTKQKSIRQKLINNVASQAHHNIPYLRDSPFTAAAQRSVQIRSKVIVPQTVRLAEELERQQLLEKRKKERNLHLQKINSIIDFIKERQSEQWSRQERCFQFGRLGASLHNQMEKDEQKRIERTAKQRLAALKSNDEEAYLKLLDQTKDTRITQLLRQTNSFLDSLSEAVRAQQNEAKILHGEEVQPITDEEREKTDYYEVAHRIKEKIDKQPSILVGGTLKEYQLRGLEWMVSLYNNHLNGILADEMGLGKTIQSISLITYLYEVKKDIGPFLVIVPLSTITNWTLEFEKWAPSLNTIIYKGTPNQRHSLQHQIRVGNFDVLLTTYEYIIKDKSLLSKHDWAHMIIDEGHRMKNAQSKLSFTISHYYRTRNRLILTGTPLQNNLPELWALLNFVLPKIFNSAKTFEDWFNTPFANTGTQEKLELTEEETLLIIRRLHKVLRPFLLRRLKKEVEKDLPDKVEKVIKCKLSGLQQQLYQQMLKHNALFVGAGTEGATKGGIKGLNNKIMQLRKICNHPFVFDEVEGVVNPSRGNSDLLFRVAGKFELLDRVLPKFKASGHRVLMFFQMTQVMDIMEDFLRMKDLKYMRLDGSTKTEERTEMLNAFNAPDSDYFCFLLSTRAGGLGLNLQTADTVIIFDTDWNPHQDLQAQDRAHRIGQKNEVRILRLITTDSVEEVILERAMQKLDIDGKVIQAGKFDNKSTAEEQEAFLRRLIESETNRDDDDKAELDDDELNDTLARSADEKILFDKIDKERMNQERADAKAQGLRVPPPRLIQLDELPKVFREDIEEHFKKEDSEPLGRIRQKKRVYYDDGLTEEQFLEAVEDDNMSLEDAIKKRREARERRRLRQNGTKENEIETLENTPEASETSLIENNSFTAAVDEETNADKETTASRSKRRSSRKKRTISIVTAEDKENTQEESTSQENGGAKVEEEVKSSSVEIINGSESKKKKPKLTVKIKLNKTTVLENNDGKRAEEKPESKSPAKKTAAKKTKTKSKSLGIFPTVEKLVEEMREQLDEVDSHPRTSIFEKLPSKRDYPDYFKVIEKPMAIDIILKNCKNGTYKTLEEVRQALQTMFENARFYNEEGSWVYVDADKLNEFTDEWFKEHSS
notes: Sth1, budding yeast, as it stands in the purified RSC complex; Present within m2 in the cross-linking experiment; also called RSC ATPase; source: subunit of RSC purified from budding yeast (TAP-tagged Rsc2)

Legend:
Conditions in all cases: both partners purified
[1] = target: T1, Scc2-Scc4 cohesin loader complex (S. cerevisiae, UniProt Q04002 1-1493; P40090 1-624); test: co-IP; 50 nM Scc2-Scc4 and 50 nM RSC or Sth1 365-1097 mixed in IP buffer (25 mM Tris-HCl pH 7.5, 100 mM NaCl, 2.5 mM MgCl2, 0.2% Triton X-100, 5% glycerol, 0.5 mM TCEP), loader captured on anti-HA protein A magnetic beads, last wash 300 mM NaCl; Sth1 detected by immunoblotting
T1 construct: Scc2, cohesin loader subunit, budding yeast; Scc4, cohesin loader subunit, budding yeast; Purified by a protein A tag that was removed by 3C protease; also called 2-4

[2] = target: B3; test: cross-linking; 0.5 uM cohesin loader and 0.5 uM RSC in CLMS buffer (22.5 mM HEPES-KOH pH 7.5, 75 mM NaCl, 100 mM potassium acetate, 10% glycerol, 0.5 mM TCEP), 1 mM DSSO 15 min 37 C, trypsin digest, tandem mass spectrometry; two biological repeats
[3] = target: T2, Scc2 subunit of the cohesin loader (S. cerevisiae, UniProt Q04002 1-1493); test: as above
T2 construct: Scc2, budding yeast, as it stands in the purified Scc2-Scc4 complex; Present within m1 in the cross-linking experiment; tags as told under m1; source: subunit of Scc2-Scc4 purified from budding yeast (overexpressed)
T2 sequence (looked up): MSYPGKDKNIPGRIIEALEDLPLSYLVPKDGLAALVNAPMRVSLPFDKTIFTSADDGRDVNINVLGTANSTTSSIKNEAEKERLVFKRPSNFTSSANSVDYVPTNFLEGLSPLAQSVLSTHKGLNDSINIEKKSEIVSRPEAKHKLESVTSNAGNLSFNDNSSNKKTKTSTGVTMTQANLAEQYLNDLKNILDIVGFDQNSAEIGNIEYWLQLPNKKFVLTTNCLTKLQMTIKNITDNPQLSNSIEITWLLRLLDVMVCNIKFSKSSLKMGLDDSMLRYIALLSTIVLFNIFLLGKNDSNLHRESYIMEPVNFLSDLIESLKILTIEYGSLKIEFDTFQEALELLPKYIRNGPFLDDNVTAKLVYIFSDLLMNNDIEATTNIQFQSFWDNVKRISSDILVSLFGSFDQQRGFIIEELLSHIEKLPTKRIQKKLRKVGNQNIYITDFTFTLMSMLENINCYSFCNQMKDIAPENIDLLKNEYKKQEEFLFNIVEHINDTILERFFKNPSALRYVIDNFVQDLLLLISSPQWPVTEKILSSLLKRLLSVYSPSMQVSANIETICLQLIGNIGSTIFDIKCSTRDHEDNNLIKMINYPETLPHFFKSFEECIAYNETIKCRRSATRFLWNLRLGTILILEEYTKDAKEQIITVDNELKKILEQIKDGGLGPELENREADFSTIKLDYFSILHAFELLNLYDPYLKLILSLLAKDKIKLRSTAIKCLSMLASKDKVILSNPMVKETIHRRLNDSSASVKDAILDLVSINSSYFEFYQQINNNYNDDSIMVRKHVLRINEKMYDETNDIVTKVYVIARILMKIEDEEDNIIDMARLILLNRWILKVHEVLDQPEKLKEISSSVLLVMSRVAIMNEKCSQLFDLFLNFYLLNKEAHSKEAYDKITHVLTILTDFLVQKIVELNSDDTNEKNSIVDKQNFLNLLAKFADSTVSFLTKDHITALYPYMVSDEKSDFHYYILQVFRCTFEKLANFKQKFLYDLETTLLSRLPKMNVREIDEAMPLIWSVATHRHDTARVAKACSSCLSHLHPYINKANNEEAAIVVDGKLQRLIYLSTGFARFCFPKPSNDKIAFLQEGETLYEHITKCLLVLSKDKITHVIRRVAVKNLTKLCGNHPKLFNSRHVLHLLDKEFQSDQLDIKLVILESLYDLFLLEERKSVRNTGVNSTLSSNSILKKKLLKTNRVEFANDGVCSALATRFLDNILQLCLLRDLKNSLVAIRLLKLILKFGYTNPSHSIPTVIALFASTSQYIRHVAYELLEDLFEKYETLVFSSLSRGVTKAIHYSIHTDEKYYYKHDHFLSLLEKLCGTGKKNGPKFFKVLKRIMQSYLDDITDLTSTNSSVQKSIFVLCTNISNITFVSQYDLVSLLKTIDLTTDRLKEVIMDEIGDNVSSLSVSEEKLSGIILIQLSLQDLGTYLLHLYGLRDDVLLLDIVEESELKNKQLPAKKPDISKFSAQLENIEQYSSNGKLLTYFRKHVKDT

binding result [1]: binds
B1: Sth1 365-1097 fragment (ATPase motor module) (domain or fragment, S. cerevisiae, UniProt P32597 365-1097, looked up)
chain: DEQKRIERTAKQRLAALKSNDEEAYLKLLDQTKDTRITQLLRQTNSFLDSLSEAVRAQQNEAKILHGEEVQPITDEEREKTDYYEVAHRIKEKIDKQPSILVGGTLKEYQLRGLEWMVSLYNNHLNGILADEMGLGKTIQSISLITYLYEVKKDIGPFLVIVPLSTITNWTLEFEKWAPSLNTIIYKGTPNQRHSLQHQIRVGNFDVLLTTYEYIIKDKSLLSKHDWAHMIIDEGHRMKNAQSKLSFTISHYYRTRNRLILTGTPLQNNLPELWALLNFVLPKIFNSAKTFEDWFNTPFANTGTQEKLELTEEETLLIIRRLHKVLRPFLLRRLKKEVEKDLPDKVEKVIKCKLSGLQQQLYQQMLKHNALFVGAGTEGATKGGIKGLNNKIMQLRKICNHPFVFDEVEGVVNPSRGNSDLLFRVAGKFELLDRVLPKFKASGHRVLMFFQMTQVMDIMEDFLRMKDLKYMRLDGSTKTEERTEMLNAFNAPDSDYFCFLLSTRAGGLGLNLQTADTVIIFDTDWNPHQDLQAQDRAHRIGQKNEVRILRLITTDSVEEVILERAMQKLDIDGKVIQAGKFDNKSTAEEQEAFLRRLIESETNRDDDDKAELDDDELNDTLARSADEKILFDKIDKERMNQERADAKAQGLRVPPPRLIQLDELPKVFREDIEEHFKKEDSEPLGRIRQKKRVYYDDGLTEEQFLEAVEDDNMSLEDAIKKRREARERRRLRQ
notes: Cloned into pGEX-6P-2; also called Sth1 ATPase module; source: E. coli BL21 Star (DE3) pLysS, purified (glutathione-sepharose, 3C protease cleavage, Superdex 200)

binding result [2]: binds
B2: Scc4 subunit of the cohesin loader (natural protein, S. cerevisiae)
chain: MENLGDKLSISQVYHLAQEYRDHAYSIANKIGSEEGLKQYYGLMNMSIQMFQLLKTKCTLSVLEDSKVTFEMVELLIQETYNFDLAELYISSLKERLQTHQSDTDLVEEIMRCEFLLLHDLPLMRDSKFHYKIALRNCNELVQYMVNLQDELYQNWASVFQYVGVMLCIKLKQHRRVKTSFHGLLSQCREKSQWKWFLNLCYVNYLLNERFPIPEDALQELRSTELHTVGPELYAWKLALEMVIQLCKDGNITDHLNEFKNFFDTNKQSLVTNEGKGCVIKIMPRIALKVELPMIFHYKELKNILLLLQSVSYIVNCYDEKGNFSRKFLPKVYSTTQKLIKNIAAGGVSMNELDSRIQTYKSILEFCEFYKVWEQTLLKGAVVTTESPKLGPSPGYVRLLQAMKVQFEGGGAVEEYTRLAQSGGTSSEVKMISLLNCYTVQAARVSRCSGDKQGELVEQCNKVWLQVEKLLQETDLQFNPIWECTVTILWLFSHFEPFSWNPLPCSDKQRAEYVSKLREFYSSNKFVAGEAVADNRFKLKKALLLQILVNYLGGRMLEHDLGEIYAISAKCFDMCRQQGGMRKVQYVIGIWHLMNCTVAMRGKDVALTNAKLEALVKQITSVKQ
notes: Scc4, budding yeast, as it stands in the purified Scc2-Scc4 complex; Present within m1 in the cross-linking experiment; tags as told under m1; source: subunit of Scc2-Scc4 purified from budding yeast (overexpressed)

Binder: B3
binding result [3]: binds
